The assay has as its target myc-tagged LRRTM2 (UniProt O43300). Put plainly: immunostaining of cells or tissue; concentrated conditioned media with Fc proteins (~1 μg/ml) added to CHO cells expressing myc-LRRTM + GFP, on ice 30 min, washed, fixed; Fc detected with Cy3 anti-human IgG, ratio Fc MGV/LRRTM MGV, normalized to control-Fc.
UniProt O43300, sequence (O43300 34-516): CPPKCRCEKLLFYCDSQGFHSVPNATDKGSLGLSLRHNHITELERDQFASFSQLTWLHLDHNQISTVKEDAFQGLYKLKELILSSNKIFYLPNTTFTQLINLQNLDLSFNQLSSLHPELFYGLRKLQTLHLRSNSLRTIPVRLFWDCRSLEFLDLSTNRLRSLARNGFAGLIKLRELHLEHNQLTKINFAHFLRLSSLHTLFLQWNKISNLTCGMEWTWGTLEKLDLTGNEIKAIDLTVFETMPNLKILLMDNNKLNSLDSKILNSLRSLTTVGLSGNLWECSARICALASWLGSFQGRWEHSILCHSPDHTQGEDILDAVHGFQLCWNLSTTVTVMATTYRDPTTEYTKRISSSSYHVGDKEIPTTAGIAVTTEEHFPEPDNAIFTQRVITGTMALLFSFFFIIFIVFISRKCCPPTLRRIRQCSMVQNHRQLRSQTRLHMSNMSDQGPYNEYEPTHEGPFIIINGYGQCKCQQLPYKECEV

Regarding P469S HA-Nrxn1α-ecto-Fc (Fc fusion), the fold increase in binding against WT amounted to 2 fold.

Source of the values: article PMC8709873.
